The target in experiment [1] is human AITR expressed on the cell surface (human) (UniProt Q9Y5U5). In words: flow cytometry on iTreg cells, surface AITR.
Experiment [2] has the same target. In words: flow cytometry on human iTreg cells; average of TRX518 and MK4166. (Flow cytometry measures light scatter and fluorescence of single cells or particles in a stream.)
For experiment [3] the target is unchanged. Put plainly: flow cytometry on AITR-5 cells (HEK293 overexpressing human AITR); unstained AITR-5 panel: Q1 0.98.

From patent US20190330358A1 come the findings set out here.

Chain of human AITR expressed on the cell surface (human) (Q9Y5U5 26-241): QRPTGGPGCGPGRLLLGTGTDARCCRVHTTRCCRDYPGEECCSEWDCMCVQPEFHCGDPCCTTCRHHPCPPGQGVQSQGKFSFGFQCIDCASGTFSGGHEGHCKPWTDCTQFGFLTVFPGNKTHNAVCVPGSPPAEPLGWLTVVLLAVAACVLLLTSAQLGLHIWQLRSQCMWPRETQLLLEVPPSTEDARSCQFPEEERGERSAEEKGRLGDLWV

Take TRX518 (antibody): the % of iTreg cells in the upper right quadrant (CD4+, antibody-positive) in experiment [1] was 20.8%. Also, the % of iTreg cells recognized as positive for human AITR in experiment [2] is 19%.

The substance MK4166 (Merck's anti-GITR antibody) had a % of iTreg cells in the upper right quadrant (CD4+, antibody-positive) in experiment [1] of 17.1%. The % of iTreg cells recognized as positive for human AITR in experiment [2] amounted to 19%.

As to Isotype control (antibody), the % of iTreg cells in the upper right quadrant (CD4+, antibody-positive) in experiment [1] is 0.79%. The % of AITR-5 cells in Q1 (antibody-positive) in experiment [3] stood at 1.95%.
